Measurements taken from publication PMC7695701, “Mechanism and inhibition of Streptococcus pneumoniae IgA1 protease” (Nature Communications, 2020).

Molecular target: T1, S. pneumoniae IgA1 protease catalytic region (IgA1P residues 665–1963), wild type (Streptococcus pneumoniae, UniProt Q59947)
T1 construct: Streptococcus pneumoniae IgA1 protease (M26 metalloprotease), catalytic region, residues 665-1963 of UniProt Q59947 / NCBI WP_000417171 (D39 and R6 strains); Thrombin cleavage site between MBP and IgA1P; also called IgA1P 665–1963; not shown: MBP, N-terminal, cleaved
Assay: cryo-EM structure; wild type IgA1P (residues 665-1963) with the mAb #2 Fab fragment; same procedure as for the IgA1 complex but in the absence of EDTA; 20 mM HEPES, pH 7.4, 150 mM NaCl
Settings: both partners purified

T1 sequence (Q59947 665-1963): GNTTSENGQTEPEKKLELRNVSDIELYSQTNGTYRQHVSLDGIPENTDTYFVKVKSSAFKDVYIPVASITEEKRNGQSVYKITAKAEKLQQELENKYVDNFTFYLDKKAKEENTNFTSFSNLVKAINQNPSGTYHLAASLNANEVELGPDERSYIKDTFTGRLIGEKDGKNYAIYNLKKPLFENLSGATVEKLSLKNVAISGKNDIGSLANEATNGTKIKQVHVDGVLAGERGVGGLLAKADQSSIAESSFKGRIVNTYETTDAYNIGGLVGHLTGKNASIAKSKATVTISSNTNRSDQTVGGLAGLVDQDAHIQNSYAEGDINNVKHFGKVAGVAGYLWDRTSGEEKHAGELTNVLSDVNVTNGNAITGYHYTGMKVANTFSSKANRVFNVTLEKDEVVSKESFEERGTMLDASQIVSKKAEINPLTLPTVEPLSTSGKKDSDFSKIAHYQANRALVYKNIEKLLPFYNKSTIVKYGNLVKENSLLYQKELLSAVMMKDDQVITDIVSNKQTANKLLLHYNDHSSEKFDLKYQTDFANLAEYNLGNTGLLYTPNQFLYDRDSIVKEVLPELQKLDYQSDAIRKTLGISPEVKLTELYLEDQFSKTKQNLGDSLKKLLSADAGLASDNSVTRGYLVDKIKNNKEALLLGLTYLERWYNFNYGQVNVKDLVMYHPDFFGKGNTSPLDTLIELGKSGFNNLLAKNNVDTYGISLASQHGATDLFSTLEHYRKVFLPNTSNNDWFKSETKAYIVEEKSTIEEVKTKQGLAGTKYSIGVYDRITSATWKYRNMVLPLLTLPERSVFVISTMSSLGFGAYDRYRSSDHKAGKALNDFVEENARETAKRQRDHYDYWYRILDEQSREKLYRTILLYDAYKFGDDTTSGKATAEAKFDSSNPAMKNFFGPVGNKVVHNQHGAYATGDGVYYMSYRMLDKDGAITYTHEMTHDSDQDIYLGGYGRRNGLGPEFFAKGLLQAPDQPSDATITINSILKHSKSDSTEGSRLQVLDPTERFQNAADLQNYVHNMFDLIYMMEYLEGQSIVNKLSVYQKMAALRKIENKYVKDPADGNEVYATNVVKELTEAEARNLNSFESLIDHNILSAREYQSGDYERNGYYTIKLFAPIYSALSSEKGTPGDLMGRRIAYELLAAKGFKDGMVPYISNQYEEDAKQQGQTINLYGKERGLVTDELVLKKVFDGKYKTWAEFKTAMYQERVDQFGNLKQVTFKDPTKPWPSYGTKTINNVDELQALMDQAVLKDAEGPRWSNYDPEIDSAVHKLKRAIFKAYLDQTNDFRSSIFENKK

B1: mAb #2 Fab fragment (neutralizing murine monoclonal antibody against IgA1P) (Fab, V domains shown)
VH: EVQLQQSGPELEKPGASMKISCKASGYSFTGYNMNWVKQSNGKSLEWIGSIDPYTGGSNYNQKFMGKATLTVDKSSSTAYMQLKSLTSEDSAVYYCATVVGRVYAMDYWGQGTSVTVSS
VL: EEVLTQSPAIMSASPGEKVTMTCSASSSVSYIHWYQQKSNTSPKLWIYATSKLASGVPGRFSGSGSGNSYSLTISSMEAEDVATYYCFQGSGYPFTFGSGTKLEIK
notes: PDB 3RHW named as the most similar heavy chain; PDB 4HXA named as the most similar light chain; Raised against purified full-length protease; also called neutralizing mAb Fab fragment; source: hybridoma (Balb C mouse spleen cells fused with SP2/0 myeloma cells), IgG purified on Protein G columns; Fab excised with immobilized Ficin
binding result: binds
